Assays:
[1] = biological target: T1, NanR (Clostridium perfringens strain 13) (UniProt P26833); test: competition; conditions: 20 mM HEPES pH 7.6, 1 mM EDTA, 10 mM ([…], room temperature 20 min
T1 sequence: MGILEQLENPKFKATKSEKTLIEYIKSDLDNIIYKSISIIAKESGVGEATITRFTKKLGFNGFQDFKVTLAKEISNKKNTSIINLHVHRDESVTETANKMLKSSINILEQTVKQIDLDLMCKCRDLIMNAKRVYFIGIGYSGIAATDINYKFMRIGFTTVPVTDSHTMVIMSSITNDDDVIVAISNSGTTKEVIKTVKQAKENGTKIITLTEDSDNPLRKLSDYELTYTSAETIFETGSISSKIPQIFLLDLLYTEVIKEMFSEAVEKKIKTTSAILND

[2] = biological target: T1, NanR (Clostridium perfringens strain 13); test: EMSA; conditions: 20 mM HEPES pH 7.6, 1 mM EDTA, 10 mM ([…], room temperature 20 min

Row | Sequence | binding [1] | binding [2]
1 | ATATTTTGATACATGCTCTTTTTTTATGAAATAAATTTTCAAAAACAAAAATTATAGGAATAAAAGTGAAAAAAATATGAATAAAAATGGCTTGAAACATAGGTTGTAGGCATATTTGGAAAAACTAAGAACCATAAAATAGAAAAATATTTTCAAAAAGTATTGAAATTCTGTGGGAAAAGGATTACAATAAAAACATAAAGAAAATAATTTTCAGAAAAAAGGTGATAAAATG (double strand) [nanE promoter probe] | binds | binds
2 | CTTTCAATAATTACCCCTCCTAATTTATTTCATTAGTATTTATTATATGGTTCTTAACTTAATTATAACTTATTTCTAGGGAAAGTTATTATTAATTAGTAGATAAATATAAAATTTGCGTAGTATAAACTGTATTTTATACAATTTTAGTAATATTAAAGCTTATTTAAACGTATACATAATATAAGGTC (double strand) [nanJ promoter probe] | – | binds more weakly

Source: article PMC4509764
